Data from article PMC4284093 (Journal of molecular biology, 2014).
Each block holds one molecule with its values, some of them ahead of it.

How the values were obtained:
[1] = target: DEBS3 (6-deoxyerythronolide B synthase 3; modules 5 and 6 and the TE domain) (Saccharopolyspora erythraea) (UniProt Q03133); test: SEC-SAXS
[2] = target: KSAT3+KR3 (module 3 of 6-deoxyerythronolide B synthase without the ACP domain) (Saccharopolyspora erythraea); test: SEC
[3] = target: KSAT3+KR3 (module 3 of 6-deoxyerythronolide B synthase without the ACP domain) (Saccharopolyspora erythraea); test: SEC-SAXS
[4] = target: M3+TE (module 3 of 6-deoxyerythronolide B synthase fused to the TE domain) (Saccharopolyspora erythraea); test: SEC-SAXS
[5] = target: the molecule itself; test: SEC-SAXS

- stoichiometry N [1]: 2
Molecule: DEBS3 (6-deoxyerythronolide B synthase 3; modules 5 and 6 and the TE domain), Q03133 1-3172

- stoichiometry N [2]: 2
- stoichiometry N [3]: 2
Molecule: KSAT3+KR3 (module 3 of 6-deoxyerythronolide B synthase without the ACP domain) (domain or fragment)

- stoichiometry N [4]: 2
Molecule: M3+TE (module 3 of 6-deoxyerythronolide B synthase fused to the TE domain) (enzyme)

B1: TE (terminal thioesterase domain of 6-deoxyerythronolide B synthase) (domain or fragment, Saccharopolyspora erythraea)
chain: QLDSGTPAREASSALRDGYRQAGVSGRVRSYLDLLAGLSDFREHFDGSDGFSLDLVDMADGPGEVTVICCAGTAAISGPHEFTRLAGALRGIAPVRAVPQPGYEEGEPLPSSMAAVAAVQADAVIRTQGDKPFVVAGHSAGALMAYALATELLDRGHPPRGVVLIDVYPPGHQDAMNAWLEELTATLFDRETVRMDDTRLTALGAYDRLTGQWRPRETGLPTLLVSAGEPMGPWPDDSWKPTWPFEHDTVAVPGDHFTMVQEHADAIARHIDAWLGGGNS
- stoichiometry N [5]: 2
